Target: grass pollen allergic patients' IgE antibodies
Test: ELISA competition; sera of 20 patients preadsorbed with 10 ug/ml rPhl p 6; competitor: plate-bound rPhl p 6

% inhibition of IgE binding: 80%
B1: recombinant Phl p 6 (protein, timothy grass, UniProt P43215 23-132, looked up)
chain: GKATTEEQKLIEDVNASFRAAMATTANVPPADKYKTFEAAFTVSSKRNLADAVSKAPQLVPKLDEVYNAAYNAADHAAPEDKYEAFVLHFSEALRIIAGTPEVHAVKPGA

Source: US20020173625A1
